Assay results published in publication PMC3479173.

T1: THAP1 THAP domain N12K (human, UniProt Q9NVV9 1-81, N12K)
T1 sequence: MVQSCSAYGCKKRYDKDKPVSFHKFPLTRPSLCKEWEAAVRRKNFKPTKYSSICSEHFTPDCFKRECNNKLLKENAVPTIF

T2: THAP1 THAP domain WT (human, UniProt Q9NVV9 1-81)
T2 sequence: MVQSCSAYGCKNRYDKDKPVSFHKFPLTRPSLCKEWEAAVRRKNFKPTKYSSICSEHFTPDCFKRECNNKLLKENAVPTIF

T3: THAP1 THAP domain Y8C (human, UniProt Q9NVV9 1-81, Y8C)
T3 sequence: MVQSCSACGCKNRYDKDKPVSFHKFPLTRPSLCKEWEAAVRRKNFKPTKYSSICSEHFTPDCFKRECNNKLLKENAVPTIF

T4: THAP1 THAP domain F81L (human, UniProt Q9NVV9 1-81, F81L)
T4 sequence: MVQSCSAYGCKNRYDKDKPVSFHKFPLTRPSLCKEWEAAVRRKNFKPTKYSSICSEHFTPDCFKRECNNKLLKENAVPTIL

T5: THAP1 THAP domain D17G (human, UniProt Q9NVV9 1-81, D17G)
T5 sequence: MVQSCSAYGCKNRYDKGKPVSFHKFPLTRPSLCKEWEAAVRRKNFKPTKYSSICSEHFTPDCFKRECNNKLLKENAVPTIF


Legend:
THAP1 THAP domain N12K [1] = target: T1, THAP1 THAP domain N12K; experiment: fluorescence quenching
THAP1 THAP domain WT [2] = target: T2, THAP1 THAP domain WT; experiment: fluorescence quenching
THAP1 THAP domain N12K [3] = target: T1, THAP1 THAP domain N12K; experiment: ITC
THAP1 THAP domain WT [4] = target: T2, THAP1 THAP domain WT; experiment: ITC
THAP1 THAP domain Y8C [5] = target: T3, THAP1 THAP domain Y8C; experiment: fluorescence quenching
THAP1 THAP domain F81L [6] = target: T4, THAP1 THAP domain F81L; experiment: fluorescence quenching
THAP1 THAP domain D17G = target: T5, THAP1 THAP domain D17G; experiment: fluorescence quenching
THAP1 THAP domain Y8C [7] = target: T3, THAP1 THAP domain Y8C; experiment: ITC
THAP1 THAP domain F81L [8] = target: T4, THAP1 THAP domain F81L; experiment: ITC

Binder | Kd (THAP1 THAP domain N12K [1]) [µM] | Kd (THAP1 THAP domain WT [2]) [µM] | Kd (THAP1 THAP domain N12K [3]) [µM] | Kd (THAP1 THAP domain WT [4]) [µM] | Kd (THAP1 THAP domain Y8C [5]) [µM] | Kd (THAP1 THAP domain F81L [6]) [µM] | Kd (THAP1 THAP domain D17G) [µM] | Kd (THAP1 THAP domain Y8C [7]) [µM] | Kd (THAP1 THAP domain F81L [8]) [µM]
14-bp non-specific DNA (ns) (dsDNA) DNA 1: GATTTGCATTTTAA DNA 2: TTAAAATGCAAATC | 0.4 ± 0.065 | 1.8 ± 0.15 | 1.75 ± 0.5 | 8.93 ± 1.28 |  |  |  |  | 
RRM1 16-bp DNA probe (dsDNA) DNA 1: GCTTGTGTGGGCAGCG DNA 2: CGCTGCCCACACAAGC |  | 0.15 ± 0.01 |  | 0.54 ± 0.19 | 0.23 ± 0.02 | 0.1 ± 0.01 | 0.025 ± 0.005 | 0.51 ± 0.1 | 0.7 ± 0.06
